Results as given in US20250090677A1 (MULTITUDE THERAPEUTICS, published 2025).

T1: CDH6 on the cell surface of OVCAR-3 cells (human ovarian cancer cells) (human, UniProt P55285 54-790)
T1 construct: whole, on cells; also called CDH6-positive human ovarian cancer cell line OVCAR-3
T1 sequence (looked up): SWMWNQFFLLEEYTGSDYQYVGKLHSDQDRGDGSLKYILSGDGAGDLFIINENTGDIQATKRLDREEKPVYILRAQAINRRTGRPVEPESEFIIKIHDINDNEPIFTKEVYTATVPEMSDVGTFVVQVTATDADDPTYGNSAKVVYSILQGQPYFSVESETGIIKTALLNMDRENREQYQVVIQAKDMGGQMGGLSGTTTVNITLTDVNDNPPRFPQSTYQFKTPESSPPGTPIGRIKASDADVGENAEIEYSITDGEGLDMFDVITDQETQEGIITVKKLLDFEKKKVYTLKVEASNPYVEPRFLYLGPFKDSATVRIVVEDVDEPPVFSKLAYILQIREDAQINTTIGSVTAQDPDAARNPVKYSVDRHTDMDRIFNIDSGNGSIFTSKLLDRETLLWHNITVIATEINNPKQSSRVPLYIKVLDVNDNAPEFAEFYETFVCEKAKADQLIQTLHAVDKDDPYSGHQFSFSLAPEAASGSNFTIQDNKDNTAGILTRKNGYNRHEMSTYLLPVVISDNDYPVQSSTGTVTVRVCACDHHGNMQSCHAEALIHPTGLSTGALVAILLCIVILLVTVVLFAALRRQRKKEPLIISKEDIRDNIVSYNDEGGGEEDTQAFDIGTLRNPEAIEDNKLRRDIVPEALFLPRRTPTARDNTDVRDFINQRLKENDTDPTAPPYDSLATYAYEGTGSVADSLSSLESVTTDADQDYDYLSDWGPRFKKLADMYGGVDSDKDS


Target: T1, CDH6 on the cell surface of OVCAR-3 …
Test: flow cytometry (FACS) on OVCAR-3 cells, antibody titration, labelled secondary antibody, MFI
Experimental: The binding EC50 of the humanized antibodies on tumor cell were tested as follow. Human ovarian cancer cell line OVCAR-3(purchased from National Collection of Authenticated Cell Cultures) cell culture was maintained in vitro as independent monolayer cultures at 37° C. in an atmosphere of 5% CO₂. The cells were harvested using trypsin-EDTA partial digestion followed by centrifugation at 1000 rpm for 5 minutes. The cell was resuspended in cold PBS and serial dilution of Ch069707 and CL069707-H1L1, CL069707-H1L2, CL069707-H2L1 and CL069707-H2L2 antibodies were added. Ch069707 antibody was a chimeric antibody. The variable regions were the same as those of CL069707, and the constant region was the same as human IgG1 constant regions (SEQ ID NO: 70 and SEQ ID NO: 71). The cell solutions were mixed, incubated at 4° C. and washed with cold PBS prior to addition of secondary antibody conjugates (for detection purposes). After incubation at 4° C., the cells were washed with PBS, and then subjected to flow cytometry (FACS) analysis.

EC50 (read off the curve) [nM] | Binder
~1 | CL069707-H1L2 (antibody, human IgG1, kappa, V domains shown, Humanized IgG1/kappa, produced in 293 cells) VH: EVQLVESGGGLVQPGGSLRLSCAASGFTFTTYAMNWVRQAPGKGLEWVARIRIKNNNYATYYADSVTDRFTISRDDSKNSLYLQMNSLKTEDTAVYYCVRPDYGNYGLAYWGQGTLVTVSS VL: DIQLTQSPSSLSASVGDRVTITCSASSSISSHYLHWYQQKPGKSPKLLIYRSFYLASGVPLRFSGSGSGTDFTLTISSLQPEDFATYYCQQDIVPLTFGQGTKLEIKR
~1 | CL069707-H2L1 (antibody, human IgG1, kappa, V domains shown, Humanized IgG1/kappa, produced in 293 cells) VH: EVQLVESGGGLVQPGGSLRLSCAASGFTFTTYAMNWVRQAPGKGLEWVGRIRIKNNNYATYYADSVTDRFTISRDDSKNSLYLQMNSLKTEDTAVYYCVRPDYGNYGLAYWGQGTLVTVSS VL: DIQLTQSPSSLSASVGDRVTITCSASSSISSHYLHWYQQKPGKSPKLLIYRSFYLASGVPSRFSGSGSGTDFTLTISSLQPEDFATYYCQQDIVPLTFGQGTKLEIKR
~1 | CL069707-H2L2 (antibody, human IgG1, kappa, V domains shown, Humanized IgG1/kappa, produced in 293 cells) VH: EVQLVESGGGLVQPGGSLRLSCAASGFTFTTYAMNWVRQAPGKGLEWVGRIRIKNNNYATYYADSVTDRFTISRDDSKNSLYLQMNSLKTEDTAVYYCVRPDYGNYGLAYWGQGTLVTVSS VL: DIQLTQSPSSLSASVGDRVTITCSASSSISSHYLHWYQQKPGKSPKLLIYRSFYLASGVPLRFSGSGSGTDFTLTISSLQPEDFATYYCQQDIVPLTFGQGTKLEIKR
